Earlier results as cited in publication PMC8878198.

Target: CXCL8 (Homo sapiens) (UniProt P10145)
Sequence (P10145 28-99): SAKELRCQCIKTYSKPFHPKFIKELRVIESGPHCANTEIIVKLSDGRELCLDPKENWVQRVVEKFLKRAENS

Sequence of CXCR2 (P25025 whole entry): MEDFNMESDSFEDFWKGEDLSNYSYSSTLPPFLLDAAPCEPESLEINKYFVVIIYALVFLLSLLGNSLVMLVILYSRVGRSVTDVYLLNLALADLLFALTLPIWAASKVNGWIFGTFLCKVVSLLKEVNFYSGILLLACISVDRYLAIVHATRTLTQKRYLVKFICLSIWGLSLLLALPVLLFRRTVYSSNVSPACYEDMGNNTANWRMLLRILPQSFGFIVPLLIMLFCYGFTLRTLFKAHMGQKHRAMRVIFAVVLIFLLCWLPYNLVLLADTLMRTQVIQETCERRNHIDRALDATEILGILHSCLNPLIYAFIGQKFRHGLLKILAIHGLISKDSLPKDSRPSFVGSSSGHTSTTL

Kd: 0.7 nM
Substance: CXCR2 (from UniProt P25025)
